Data on 13 molecules can be found in PMC4301919, “Helical Defects in MicroRNA Influence Protein Binding by TAR RNA Binding Protein”.

Series [1] deals with T1, TRBP-ΔC (UniProt Q15633-2 9-215).
T1 sequence: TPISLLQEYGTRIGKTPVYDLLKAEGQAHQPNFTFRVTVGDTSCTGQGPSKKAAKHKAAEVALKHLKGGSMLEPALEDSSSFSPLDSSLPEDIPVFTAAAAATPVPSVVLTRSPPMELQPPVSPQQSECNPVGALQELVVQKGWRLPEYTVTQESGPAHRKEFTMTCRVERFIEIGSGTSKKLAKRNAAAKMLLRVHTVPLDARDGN
Nature of the series: EMSA; apparent Kd; nH 4; 50 mM sodium cacodylate pH 7.0, 50 mM potassium glutamate, 5% glycerol; EMSA 0.5 pM RNA, 30 min at room temperature, gel 0.25X TBE at 10 C; CD at 10 C with 5-15 uM RNA. Particulars: protein: recombinant; label: 5'-32P top strand (EMSA); blunt. On the technique in general: In EMSA bound probe runs differently from free probe, usually more slowly.

Series [2] addresses T2, TRBP-dsRBD2 (UniProt Q15633-2 139-215).
T2 sequence: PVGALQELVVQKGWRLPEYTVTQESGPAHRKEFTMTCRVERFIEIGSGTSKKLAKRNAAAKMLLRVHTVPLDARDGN
Nature of the series: EMSA; apparent Kd; nH 2.7; 50 mM sodium cacodylate pH 7.0, 50 mM potassium glutamate, 5% glycerol; EMSA 0.5 pM RNA, 30 min at room temperature, gel 0.25X TBE at 10 C; CD at 10 C with 5-15 uM RNA. The conditions noted are these: protein: recombinant.

Series [3] deals with T3, TRBP-dsRBD1 (UniProt Q15633-2 9-85).
T3 sequence: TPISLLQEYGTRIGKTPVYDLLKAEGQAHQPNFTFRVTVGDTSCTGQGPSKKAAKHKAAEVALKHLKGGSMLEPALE
Nature of the series: EMSA; apparent Kd; nH 1.5; 50 mM sodium cacodylate pH 7.0, 50 mM potassium glutamate, 5% glycerol; EMSA 0.5 pM RNA, 30 min at room temperature, gel 0.25X TBE at 10 C; CD at 10 C with 5-15 uM RNA. Particulars: protein: recombinant; label: 5'-32P top strand (EMSA); blunt.

Series [4] addresses T1, TRBP-ΔC. Nature of the series: EMSA; apparent Kd; nH 1.1; text gives error 0.1; 50 mM sodium cacodylate pH 7.0, 50 mM potassium glutamate, 5% glycerol; EMSA 0.5 pM RNA, 30 min at room temperature, gel 0.25X TBE at 10 C; CD at 10 C with 5-15 uM RNA. The conditions noted are these: protein: recombinant; label: 5'-32P top strand; imperfect duplex with U-bulge and A-A mismatch.

The target in series [5] is T1, TRBP-ΔC. The experiment in a line: EMSA; apparent Kd; nH >12; 50 mM sodium cacodylate pH 7.0, 50 mM potassium glutamate, 5% glycerol; EMSA 0.5 pM RNA, 30 min at room temperature, gel 0.25X TBE at 10 C; CD at 10 C with 5-15 uM RNA. The conditions noted are these: protein: recombinant; label: 5'-32P top strand (EMSA); blunt.
The target of series [6] is T2, TRBP-dsRBD2. Nature of the series: EMSA; apparent Kd; nH 3.1; 50 mM sodium cacodylate pH 7.0, 50 mM potassium glutamate, 5% glycerol; EMSA 0.5 pM RNA, 30 min at room temperature, gel 0.25X TBE at 10 C; CD at 10 C with 5-15 uM RNA. Particulars: protein: recombinant; label: 5'-32P top strand (EMSA); blunt.
Series [7] has as its target T3, TRBP-dsRBD1. The experiment in a line: EMSA; apparent Kd; nH 2.9; 50 mM sodium cacodylate pH 7.0, 50 mM potassium glutamate, 5% glycerol; EMSA 0.5 pM RNA, 30 min at room temperature, gel 0.25X TBE at 10 C; CD at 10 C with 5-15 uM RNA. Particulars: protein: recombinant; label: 5'-32P top strand (EMSA); blunt.
The target in series [8] is T2, TRBP-dsRBD2. The experiment in a line: EMSA; apparent Kd; nH 2.4; 50 mM sodium cacodylate pH 7.0, 50 mM potassium glutamate, 5% glycerol; EMSA 0.5 pM RNA, 30 min at room temperature, gel 0.25X TBE at 10 C; CD at 10 C with 5-15 uM RNA. Particulars: protein: recombinant; label: 5'-32P; hairpin, 16 bp stem, UUCG loop.
Series [9] concerns the target T3, TRBP-dsRBD1. The experiment in a line: EMSA; apparent Kd; nH 1.3; 50 mM sodium cacodylate pH 7.0, 50 mM potassium glutamate, 5% glycerol; EMSA 0.5 pM RNA, 30 min at room temperature, gel 0.25X TBE at 10 C; CD at 10 C with 5-15 uM RNA. Particulars: protein: recombinant, label: 5'-32P, hairpin, 16 bp stem.
For series [10], the target named is T1, TRBP-ΔC. The experiment in a line: EMSA; apparent Kd; nH 1.1; 50 mM sodium cacodylate pH 7.0, 50 mM potassium glutamate, 5% glycerol; EMSA 0.5 pM RNA, 30 min at room temperature, gel 0.25X TBE at 10 C; CD at 10 C with 5-15 uM RNA. Particulars: protein: recombinant; label: 5'-32P; hairpin, 16 bp stem, UUCG loop.
Series [11] addresses T1, TRBP-ΔC. The experiment in a line: EMSA; apparent Kd; nH 4.1; 50 mM sodium cacodylate pH 7.0, 50 mM potassium glutamate, 5% glycerol; EMSA 0.5 pM RNA, 30 min at room temperature, gel 0.25X TBE at 10 C; CD at 10 C with 5-15 uM RNA. The conditions noted are these: protein: recombinant; label: 5'-32P; hairpin, 16 bp stem, U4 loop.
Series [12] deals with T3, TRBP-dsRBD1. Nature of the series: EMSA; apparent Kd; nH 1.0; 50 mM sodium cacodylate pH 7.0, 50 mM potassium glutamate, 5% glycerol; EMSA 0.5 pM RNA, 30 min at room temperature, gel 0.25X TBE at 10 C; CD at 10 C with 5-15 uM RNA. Particulars: protein: recombinant, label: 5'-32P, hairpin, 16 bp stem.
Series [13] addresses T1, TRBP-ΔC. Nature of the series: EMSA; apparent Kd; nH 3.1; 50 mM sodium cacodylate pH 7.0, 50 mM potassium glutamate, 5% glycerol; EMSA 0.5 pM RNA, 30 min at room temperature, gel 0.25X TBE at 10 C; CD at 10 C with 5-15 uM RNA. The conditions noted are these: protein: recombinant; label: 5'-32P; hairpin, 16 bp stem, U6 loop.
Series [14] has as its target T2, TRBP-dsRBD2. Nature of the series: EMSA; apparent Kd; nH >2; text says bound; 50 mM sodium cacodylate pH 7.0, 50 mM potassium glutamate, 5% glycerol; EMSA 0.5 pM RNA, 30 min at room temperature, gel 0.25X TBE at 10 C; CD at 10 C with 5-15 uM RNA. The conditions noted are these: protein: recombinant, label: 5'-32P, hairpin, 16 bp stem.
Series [15] addresses T1, TRBP-ΔC. Nature of the series: EMSA; apparent Kd; nH 1.6; 50 mM sodium cacodylate pH 7.0, 50 mM potassium glutamate, 5% glycerol; EMSA 0.5 pM RNA, 30 min at room temperature, gel 0.25X TBE at 10 C; CD at 10 C with 5-15 uM RNA. Particulars: protein: recombinant; label: 5'-32P; hairpin with 1-nt U-bulge and A-A mismatch.
The target of series [16] is T1, TRBP-ΔC. Nature of the series: EMSA; apparent Kd; nH 2.5; 50 mM sodium cacodylate pH 7.0, 50 mM potassium glutamate, 5% glycerol; EMSA 0.5 pM RNA, 30 min at room temperature, gel 0.25X TBE at 10 C; CD at 10 C with 5-15 uM RNA. Particulars: protein: recombinant; label: 5'-32P; hairpin, 16 bp stem, U8 loop.
The target of series [17] is T1, TRBP-ΔC. Nature of the series: EMSA; apparent Kd; nH 2.7; 50 mM sodium cacodylate pH 7.0, 50 mM potassium glutamate, 5% glycerol; EMSA 0.5 pM RNA, 30 min at room temperature, gel 0.25X TBE at 10 C; CD at 10 C with 5-15 uM RNA. Particulars: protein: recombinant; label: 5'-32P top strand; duplex with 1x1 A-A mismatch.
Series [18] concerns the target T1, TRBP-ΔC. Nature of the series: EMSA; apparent Kd; nH 3.2 (1.4 in loop section); 50 mM sodium cacodylate pH 7.0, 50 mM potassium glutamate, 5% glycerol; EMSA 0.5 pM RNA, 30 min at room temperature, gel 0.25X TBE at 10 C; CD at 10 C with 5-15 uM RNA. The conditions noted are these: protein: recombinant; label: 5'-32P top strand (EMSA); blunt.
The target of series [19] is T1, TRBP-ΔC. Nature of the series: EMSA; apparent Kd; nH 1.9; 50 mM sodium cacodylate pH 7.0, 50 mM potassium glutamate, 5% glycerol; EMSA 0.5 pM RNA, 30 min at room temperature, gel 0.25X TBE at 10 C; CD at 10 C with 5-15 uM RNA. The conditions noted are these: protein: recombinant; label: 5'-32P top strand (EMSA); blunt.
Series [20] concerns the target T2, TRBP-dsRBD2. The experiment in a line: EMSA; apparent Kd; nH 4.3; 50 mM sodium cacodylate pH 7.0, 50 mM potassium glutamate, 5% glycerol; EMSA 0.5 pM RNA, 30 min at room temperature, gel 0.25X TBE at 10 C; CD at 10 C with 5-15 uM RNA. Particulars: protein: recombinant; label: 5'-32P top strand (EMSA); blunt.
Series [21] deals with T1, TRBP-ΔC. Nature of the series: EMSA; apparent Kd; nH >14; 50 mM sodium cacodylate pH 7.0, 50 mM potassium glutamate, 5% glycerol; EMSA 0.5 pM RNA, 30 min at room temperature, gel 0.25X TBE at 10 C; CD at 10 C with 5-15 uM RNA. Particulars: protein: recombinant; label: 5'-32P top strand (EMSA); blunt.
For series [22], the target named is T3, TRBP-dsRBD1. Nature of the series: EMSA; apparent Kd; nH 2.6; 50 mM sodium cacodylate pH 7.0, 50 mM potassium glutamate, 5% glycerol; EMSA 0.5 pM RNA, 30 min at room temperature, gel 0.25X TBE at 10 C; CD at 10 C with 5-15 uM RNA. Particulars: protein: recombinant; label: 5'-32P top strand (EMSA); blunt.
Series [23] addresses T1, TRBP-ΔC. The experiment in a line: EMSA; apparent Kd; nH 5; 50 mM sodium cacodylate pH 7.0, 50 mM potassium glutamate, 5% glycerol; EMSA 0.5 pM RNA, 30 min at room temperature, gel 0.25X TBE at 10 C; CD at 10 C with 5-15 uM RNA. Particulars: protein: recombinant; label: 5'-32P top strand; duplex with 1-nt U-bulge.

B1: ds22 (dsRNA)
RNA 1: GUCAGCAGUGCCUUAGCAGCAC
RNA 2: GUGCUGCUAAGGCACUGCUGAC
In the case of B1, the Kd in series [1] worked out at 600 ± 50 nM; in series [2] (label: 5'-32P top strand (EMSA), blunt), 1700 ± 100 nM; in series [3] it was 3500 ± 200 nM.

B2: miR-16-1/miR-16-1* (dsRNA)
RNA 1: UAGCAGCACGUAAAUAUUGGCG
RNA 2: CCAGUAUUAACUGUGCUGCUGAA
For the molecule B2, in [4], the Kd was determined as 1100 ± 10 nM.

B3: ds33 (dsRNA)
RNA 1: GGUCAGCAGUGCCUUAGCAGCACGUAAAUAUGG
RNA 2: CCAUAUUUACGUGCUGCUAAGGCACUGCUGACC
Consider B3, for which the Kd turned out to be 200 ± 20 nM in series [5], 1000 ± 80 nM in [6] and 900 ± 300 nM in series [7].
On to GUCAGCAGUGCCUUAGUUCGCUAAGGCACUGCUGAC (structured_RNA) [ds16-tetra-stable], for which the Kd turned out to be 5000 ± 700 nM in series [8], 9000 ± 1000 nM in [9] (UUCG loop) and 500 ± 50 nM in series [10].
For the molecule GUCAGCAGUGCCUUAGUUUUCUAAGGCACUGCUGAC (structured_RNA) [ds16-tetra-U], the Kd in series [11] amounted to 700 ± 50 nM; in series [12] (U4 loop), 7000 ± 900 nM; in series [2] (label: 5'-32P, hairpin, 16 bp stem, U4 loop) it was 4000 ± 900 nM.
In the case of GUCAGCAGUGCCUUAGUUUUUUCUAAGGCACUGCUGAC (structured_RNA) [ds16-hexa-U], the Kd is 10000 ± 3000 nM in [12] (U6 loop), 610 ± 50 nM in series [13] and greater than 4000 nM in [14] (U6 loop).

B4: pre-mir-16-1 (structured_RNA)
RNA: UAGCAGCACGUAAAUAUUGGCGUUAAGAUUCUAAAAUUAUCUCCAGUAUUAACUGUGCUGCUGAA
Turning to B4, in series [15], the Kd was found to be 610 ± 20 nM.
With GUCAGCAGUGCCUUAGUUUUUUUUCUAAGGCACUGCUGAC (structured_RNA) [ds16-octa-U], the Kd in series [16] is 410 ± 50 nM; in series [14] (U8 loop), greater than 6000 nM; in [9] (U8 loop), 8000 ± 3000 nM.

B5: A-mismatch (dsRNA)
RNA 1: GGUCAGCACGUAAAUAUUGUCC
RNA 2: GGACAGUAUUAACGUGCUGUAC
B5: in series [17], the Kd came out at 1780 ± 80 nM.

B6: ds16 (dsRNA)
RNA 1: GUCAGCAGUGCCUUAG
RNA 2: CUAAGGCACUGCUGAC
For B6, the Kd in [18] came to 800 ± 70 nM.

B7: ds12 (dsRNA)
RNA 1: GUCAGCAGUGCC
RNA 2: GGCACUGCUGAC
For B7, the Kd in series [19] amounted to 2000 ± 300 nM.

B8: ds44 (dsRNA)
RNA 1: GGUCAGCAGUGCCUUAGCAGCACGUAAAUAUUGGCGUUAAGACC
RNA 2: GGUCUUAACGCCAAUAUUUACGUGCUGCUAAGGCACUGCUGACC
Turning to B8, the Kd was found to be 800 ± 60 nM in series [20], 60 ± 10 nM in series [21] and 800 ± 50 nM in [22].

B9: U-bulge (dsRNA)
RNA 1: GGUCAGCACGUAAAUAUUGUCC
RNA 2: GGACAGUAUUUACUGUGCUGAUC
In the case of B9, in [23], the Kd worked out at 300 ± 30 nM.
